Reference: PMC9121386

Molecular target: 80S ribosome (purified 80S ribosomal fraction from H1299 cells) (human (endogenous in H1299))

Sequence of fragile histidine triad (Fhit), wild type (P49789 whole entry): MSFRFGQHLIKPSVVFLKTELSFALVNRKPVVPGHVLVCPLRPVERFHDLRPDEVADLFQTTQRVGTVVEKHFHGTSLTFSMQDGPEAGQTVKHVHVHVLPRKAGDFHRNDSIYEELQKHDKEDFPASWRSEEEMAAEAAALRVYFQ

## fragile histidine triad (Fhit), wild type (from UniProt P49789 1-147) (enzyme)
  turnover of Ap3A by Fhit (RP-HPLC) with 80S ribosomes pre-incubated with RNaseA: < 5%
